From patent publication US20110052677A1 (RESEARCH DEVELOPMENT FOUNDATION, published 2011)

Target: T1, native SRPX2 of tEnd1.V^high mouse angiogenic endothelioma cells (mouse, UniProt Q8R054 26-468)
T1 construct: Endogenous protein from a mouse endothelioma cell line; also called native SPRXb 2; Sushi repeat-containing protein, X-linked, 2
T1 sequence (looked up): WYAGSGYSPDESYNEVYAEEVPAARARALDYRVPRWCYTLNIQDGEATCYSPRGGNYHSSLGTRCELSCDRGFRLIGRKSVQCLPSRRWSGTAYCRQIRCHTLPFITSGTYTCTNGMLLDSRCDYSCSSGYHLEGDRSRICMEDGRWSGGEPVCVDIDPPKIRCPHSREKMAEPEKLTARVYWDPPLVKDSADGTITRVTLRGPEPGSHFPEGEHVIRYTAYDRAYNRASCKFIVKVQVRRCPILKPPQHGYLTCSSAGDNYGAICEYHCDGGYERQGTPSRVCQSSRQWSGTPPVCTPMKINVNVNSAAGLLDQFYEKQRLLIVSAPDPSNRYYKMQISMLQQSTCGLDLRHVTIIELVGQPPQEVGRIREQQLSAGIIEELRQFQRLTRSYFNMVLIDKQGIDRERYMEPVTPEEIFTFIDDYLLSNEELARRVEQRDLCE
Assay: anti-uPAR immunoprecipitate from tEnd1.V^high lysate, blot re-probed with rabbit anti-SRPX2 antibody
Experimental: Pull down assay of SRPX2 by uPAR—The tEnd1.V^high cells were cell surface biotinylated (0.5 mg/ml of biotin in DPBS) for 15 min, blocked with 10% FCS in PBS and lysed in lysis buffer with addition of 0.5% CHAPS and proteinase inhibitors (Sigma). Pre-clearing was preformed subsequently with the protein G beads (40 μl beads/1 ml lysate) (Protein G Sepharose 4 fast flow, General Electrics) for 3×5 min at RT. Immuno-precipitation was performed by adding sheep anti-uPAR antibodies, precipitated with protein G beads and eluted with a lysis buffer. Immunoblots were preformed with sheep anti-uPAR antibodies and detected by anti-sheep HRP labeled antibodies and visualized by ECL.

B1: vascular urokinase-type plasminogen activator receptor (uPAR) of tEnd1.V^high cells (receptor, mouse, UniProt P35456 24-298, looked up)
chain: LQCMQCESNQSCLVEECALGQDLCRTTVLREWQDDRELEVVTRGCAHSEKTNRTMSYRMGSMIISLTETVCATNLCNRPRPGARGRAFPQGRYLECASCTSLDQSCERGREQSLQCRYPTEHCIEVVTLQSTERSLKDEDYTRGCGSLPGCPGTAGFHSNQTFHFLKCCNYTHCNGGPVLDLQSFPPNGFQCYSCEGNNTLGCSSEEASLINCRGPMNQCLVATGLDVLGNRSYTVRGCATASWCQGSHVADSFPTHLNVSVSCCHGSGCNSPTG
notes: whole, on cells; Native GPI-linked receptor, immunoprecipitated from cell lysate after cell-surface biotinylation; Species is inferred from the mouse cell line; also called vascular uPAR; native uPAR
binding result: binds
